Data from patent publication US20200095301A1 (published 2020).

What was measured:
[1] = biological target: human IL-13Rα1 ectodomain, biotinylated (human) (UniProt P78552); test: SPR; kinetic; details: ligand
[2] = biological target: human IL-13Rα1 ectodomain, biotinylated (human) (UniProt P78552); test: SPR; equilibrium; details: ligand
[3] = biological target: T1, human IL-13Rα2, biotinylated (human, UniProt Q14627 27-343, biotinylated (site not stated)); test: SPR; kinetic
T1 chain: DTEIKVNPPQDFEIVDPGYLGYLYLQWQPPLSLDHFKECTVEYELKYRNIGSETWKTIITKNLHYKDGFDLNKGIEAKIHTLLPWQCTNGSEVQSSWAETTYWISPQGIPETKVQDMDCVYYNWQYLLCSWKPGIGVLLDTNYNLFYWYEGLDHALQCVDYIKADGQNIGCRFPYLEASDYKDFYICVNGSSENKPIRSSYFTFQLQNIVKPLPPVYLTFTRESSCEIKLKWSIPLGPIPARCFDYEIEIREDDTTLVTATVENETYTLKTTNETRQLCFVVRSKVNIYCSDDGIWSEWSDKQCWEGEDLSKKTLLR

human IL-13Rα1 ectodomain, biotinylated (human), sequence (P78552 other isoform, or with tags, fused parts or gaps): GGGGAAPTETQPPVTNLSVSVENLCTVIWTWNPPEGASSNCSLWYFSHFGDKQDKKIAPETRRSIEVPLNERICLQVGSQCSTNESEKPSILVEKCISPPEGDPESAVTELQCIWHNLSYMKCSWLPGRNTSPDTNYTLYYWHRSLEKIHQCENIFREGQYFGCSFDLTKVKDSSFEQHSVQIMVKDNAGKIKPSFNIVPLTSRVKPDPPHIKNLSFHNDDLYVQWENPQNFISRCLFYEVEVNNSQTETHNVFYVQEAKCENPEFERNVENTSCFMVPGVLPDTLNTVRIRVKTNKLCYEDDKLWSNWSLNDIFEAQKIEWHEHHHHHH

## IL-13 variant B4 [R11S, V18I, R86K, D87G, T88S, K89M, L101Y, K104R, K105T]
[1]
  Kd: 18 nM

## IL-13 superkine D7 [L10A, V18F, R86K, D87K, K89R, L101I, K104R, R108K]
[2]
  Kd: 4100 nM

B1: IL-13 superkine D7 [L10A, V18F, R86K, D87K, K89R, L101I, K104R, R108K] (ligand)
chain: PGPVPPSTAARELIEELFNITQNQKAPLCNGSMVWSINLTAGMYCAALESLINVSGCSAIEKTQRMLSGFCPHKVSAGQFSSLHVKKTRIEVAQFVKDLLIHLRKLFKEGQFNHHHHHH
[3]
  Kd: 0.003 nM
